The text below walks through data of US20250332297A1, “DLL3-SPECIFIC BINDING CONSTRUCTS AND THEIR USE IN RADIOTHERAPY” (MOLECULAR PARTNERS AG, priority 2024, published 2025).

One may read the EC50 as the concentration needed to bring the measured effect to its halfway point. A higher EC50 goes with weaker potency.

Where a chain is given by its changes, count along the chain named.

Data set [1] concerns the target T1, Human DLL3 expressed on cells (HEK293T-hDLL3, NCI-H82, SHP-77, MC38-hDLL3) (human, UniProt Q9NYJ7 27-618).
T1 construct: also called DLL3 endogenously expressed on human cells
T1 sequence: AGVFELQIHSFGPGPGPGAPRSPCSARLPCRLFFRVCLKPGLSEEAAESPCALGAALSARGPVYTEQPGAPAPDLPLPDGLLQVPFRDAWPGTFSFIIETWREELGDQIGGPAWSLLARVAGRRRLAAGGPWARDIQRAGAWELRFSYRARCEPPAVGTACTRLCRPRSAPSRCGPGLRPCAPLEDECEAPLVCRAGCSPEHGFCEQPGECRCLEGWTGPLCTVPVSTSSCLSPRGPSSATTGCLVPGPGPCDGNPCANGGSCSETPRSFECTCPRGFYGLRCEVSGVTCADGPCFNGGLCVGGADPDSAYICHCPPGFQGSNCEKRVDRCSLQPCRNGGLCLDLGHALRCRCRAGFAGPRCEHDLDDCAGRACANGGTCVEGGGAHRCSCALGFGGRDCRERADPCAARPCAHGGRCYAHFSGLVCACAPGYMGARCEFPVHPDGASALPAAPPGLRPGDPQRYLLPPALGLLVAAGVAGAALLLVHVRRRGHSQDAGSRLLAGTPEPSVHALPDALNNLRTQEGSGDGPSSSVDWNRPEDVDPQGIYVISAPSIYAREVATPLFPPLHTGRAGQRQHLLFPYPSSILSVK
Kind of data set: flow cytometry titration on HEK293T-hDLL3 cells, without HSA. As for the experimental part:
(§1) Cell binding titration assays were performed for selected His-tagged single domain (1 D) and two domain (2D) designed ankyrin repeat proteins to determine binding to human DLL3 expressed on HEK293T-huDLL3 cells in absence and presence of human serum albumin. […] HEK293T-hDLL3 cells are HEK293T cells that were stably transfected to express human DLL3 on their surface.
(§2) In brief, 1×10⁵ cells/well were resuspended in 100 μl DARPin dilution (500 nM, 1:5 serial diluted) and incubated for 1 h at 4° C. Cells were washed twice with PBS and resuspended in 100 μl anti-DARPin antibody (rabbit anti-DARPin 1.4.8) and LIVE/DEAD fixable cell stain (1:1000, Thermo Fisher #L34957). This step was performed in absence and presence of […] Human Serum Albumin (CSL Behring #150570). After incubation and washing, cells were incubated with detection antibody for 30 minutes (Goat […] IgG (H+L), AF647, Thermo Fisher #21445). Cells were fixed (Paraformaldehyde Solution, LucernaChem) and acquired at Attune N×T (Thermo Life Technologies). Raw fcs files were exported and analyzed using FlowJo software. MFI values of live AF647-positive cells were exported from FlowJo and plotted using GraphPad Prism software.

Data set [2] concerns the target T1, Human DLL3 expressed on cells …. Kind of data set: flow cytometry titration on HEK293T-hDLL3 cells, with HSA. As for the experimental part:
as §1, §2

In data set [3] the test system is NCI-H82 tumor model. Nature of the data set: Biodistribution of radio-labelled DARPin conjugates in NCI-H82 tumor model. Conditions: mouse, in vivo, iv, 0.01 mg/kg. As for the experimental part:
NCI-H82 tumor model. R2G2 mice were purchased from Envigo. All studies were conducted under the approval of the institutional IACUC committee. Animals were maintained under specific-pathogen-free (SPF) conditions with daily cycles of light and darkness (12 h/12 h), in line with ethical guidelines. No manipulations were performed during the first 5 days after arrival, to allow the animals to acclimatize to the new environment. All mice were monitored daily for assessment of physical condition and general well-being. NCI-H82 cells were purchased from ATCC (Catalog No. HTB-175). Solid xenografts were established by subcutaneous (SQ) injection of NCI-H82 cells in RPMI media mixed 1:1 with Corning® Matrigel® basement membrane matrix (GFR; Corning, Cat No 354230.). Cells were quantified using Countess cell counter. Each mouse was injected SQ with 5×10^6 NCI-H82 cells in 100 μL RPMI/GFR-Matrigel into the right flank of each mouse. Tumor volumes were estimated three times per week through calipering, according to the formula: volume=0.5×length×width^2 and grown until they reached 200-300 mm^3. Tumor-associated antigen level expressed in tumors, tumor vascularization profile and DLL3 soluble form in mouse serum was tested.
Biodistribution study. […] Radio-labeled (Pb-212) DARPin conjugates were then injected at 0.01 mg/kg (10 μCi DARPin conjugates) into the tail vein of R2G2 mice (females) xenografted subcutaneously (at age of about 7 weeks) with NCI-H82 cells (5 million cells, growth factor reduced Matrigel) and bearing tumors (5-10 mm in diameter). […] Biodistribution was monitored at 4 h and 24h post-injection. Mice were euthanized by CO2 inhalation and cervical dislocation. Blood, spleen, kidneys, liver and tumor were extracted, weighed and the radioactivity was determined with a γ-counter counter (such as Wizard^22470, Perkin Elmer). The data were expressed as the % injected dose/gram (% ID/g).
Radio-labeled (Pb-212) DARPin conjugates were then injected at 0.01 mg/kg (10 μCi DARPin conjugates) into the tail vein of R2G2 mice (females) xenografted subcutaneously (at age of about 7 weeks) with NCI-H82 cells (5 million cells, growth factor reduced Matrigel) and bearing tumors (5-10 mm in diameter). Biodistribution was monitored at 4 h and 24h post-injection. Mice were euthanized by CO2 inhalation and cervical dislocation. Kidneys and tumor were extracted, weighed and the radioactivity was determined with a γ-counter counter (such as Wizard^22470, Perkin Elmer). The data were expressed as the % injected dose/gram (% ID/g) and the tumor to kidney (T:K) ratio was determined.
Radio-labelled (Pb-212) DARPin conjugates were then injected at 0.01 mg/kg (10 μCi DARPin conjugates) (i) into the tail vein of R2G2 mice (females) xenografted subcutaneously (at age of about 7 weeks) with NCI-H82 cells (5 million cells, growth factor reduced Matrigel) and bearing tumors (5-10 mm in diameter), and (ii) into the tail vein of athymic nude mice (females) xenografted subcutaneously (at age of about 7 weeks) with hDLL3-MC38 cells (5 million cells, growth factor reduced Matrigel) and bearing tumors (5-10 mm in diameter). Biodistribution was monitored at 4 h and 24h post-injection. Mice were euthanized by CO2 inhalation and cervical dislocation. Blood, bladder, small intestine, colon, spleen, kidneys, liver, lung, heart, tail and tumor were extracted, weighed and the radioactivity was determined with a γ-counter (such as Wizard^22470, Perkin Elmer). The data were expressed as the % injected dose/gram (% ID/g).

The subject of data set [4] is NCI-H82 tumors. Nature of the data set: Efficacy (tumor growth) in NCI-H82 tumor model. In kind it is in vivo, mouse. Conditions: Dunnett's multiple comparisons test, tumor volume in mm^3, NCI-H82, R2G2 mice. On the procedure:
To determine the efficacy of radio-labelled (Pb-212) DARPin (MAM279) conjugate in inhibiting the growth of tumors that express DLL3, different dose regimens (single or repeated dose) of the conjugate were tested in a relevant mouse tumor model (NCI-H82).
Animals were under observation daily and 3× per week tumors were measured by caliper. Animals were sacrificed when tumors reached 1500 to 2000 mm^3 or if termination criteria were met. The data were expressed as average+/−SEM of tumor volume in mm^3.
To determine the efficacy of more frequent repeat-dosing of radio-labelled (Pb-212) DARPin (MAM279) conjugate in inhibiting the growth of tumors that express DLL3, a weekly repeat-dosing regimen of the conjugate was tested in a relevant mouse tumor model (NCI-H82).
Corresponding injections of buffer only were done as control. The first weekly injection of radio-labeled molecules was done 14 days after xenografting the NCI-H82 cells. Animals were under observation daily and 3× per week tumors were measured by caliper. Animals were sacrificed when tumors reached 1500 to 2000 mm^3 or if termination criteria were met. The data were expressed as average+/−SEM of tumor volume in mm^3. Results are shown in FIGS. 20A to 20D and Table 23.

B1: MAM088 (single domain ankyrin repeat protein, His-tagged) (designed binder)
chain: DLGKKLLAAAREGQDDEVRELLKAGADVNAKDIWGQTPLHIAAWFGHLEIVEVLLKAGADVNAKDQTGHTPLHLAAKFGHLEIVEVLLKAGADVNAQDLLGRTPADLAAEEGHEDIAEVLQKAA
notes: also called 1D DARPin; not shown: His-tag
As to B1, the EC50 in data set [1] came to 5 nM; in data set [2], 5.1 nM.

B2: MAM112 (single domain ankyrin repeat protein, His-tagged) (designed binder)
chain: DLGKKLLAAAADGQDDEVRELLQAGADVNAKDLFGYTPLHLAAWRGHLEIVEVLLEAGADVNAKDAAGETPLHLAAWFGHLEIVEVLLEAGADVNAQDVQGKTPADLAAKEGHEDIAEVLQQAA
notes: as for B1
Regarding B2, the EC50 in data set [1] was 4.2 nM; in data set [2], 4.6 nM.

B3: MAM120: Ankyrin repeat domain specific for DLL3 (SEQ ID NO: 4); single domain (1D) DARPin (protein)
chain: B2 chain with K4T, A8S, E69L, K102V
modifications: Ankyrin repeat domain specific for DLL3 (MAM120)
For B3, in data set [3] (4 h), the “Blood % ID/g” value worked out at 0.1 % ID/g, the “Kidneys % ID/g” value was 65.5 % ID/g and the “Tumors % ID/g” value is given as 2.6 % ID/g. Besides, in data set [3] (24 h), the “Blood % ID/g” value was 0.1 % ID/g, the “Kidneys % ID/g” value is reported as 47.3 % ID/g and the “Tumors % ID/g” value was 2.9 % ID/g.

B4: MAM093 (single domain ankyrin repeat protein, His-tagged) (designed binder)
chain: B2 chain with D12Q, Q23K, D27N, E56K, E89K, V99L, Q122K
notes: as for B1
Consider B4, for which the figures for the EC50 in data set [1] and in data set [2] were 4.9 nM and 5.5 nM, respectively.

B5: MAM120 (single domain ankyrin repeat protein, His-tagged) (designed binder)
chain: B2 chain with K4T, A8S, E69L, K102V
notes: as for B1
On to B5, for which the EC50 in data set [1] worked out at 7 nM; in data set [2] it was 8 nM.

B6: Rova conjugate: Rova antibody conjugated with chelator (DOTAM) and labeled with Pb-212, used as control molecule (conjugate, chains of the INN, looked up)
VH: QVQLVQSGAEVKKPGASVKVSCKASGYTFTNYGMNWVRQAPGQGLEWMGWINTYTGEPTYADDFKGRVTMTTDTSTSTAYMELRSLRSDDTAVYYCARIGDSSPSDYWGQGTLVTVSS
VL: EIVMTQSPATLSVSPGERATLSCKASQSVSNDVVWYQQKPGQAPRLLIYYASNRYTGIPARFSGSGSGTEFTLTISSLQSEDFAVYYCQQDYTSPWTFGQGTKLEIK
modifications: DOTAM chelator, 212Pb radiolabel
notes: Rova antibody conjugated with chelator (DOTAM) and labeled with Pb-212, used as control molecule
Turning to B6, the “Mean Diff.” value turned out to be 119.6 in data set [4] (Buffer vs. conjugate (1 × 10μCi)) and 256.3 in data set [4] (Buffer vs. conjugate (4 × 10μCi, injections 2 weeks apart)).

B7: neg. control: negative control DARPin (SEQ ID NO: 26), DLL3-specific domain replaced with non-binding domain, DOTAM-conjugated, Pb-212 labelled (conjugate)
chain: GSDLGKKLLEAARAGQDDEVRELLKAGADVNAKDYFSHTPLHLAARNGHLKIVEVLLKAGADVNAKDFAGKTPLHLAADAGHLEIVEVLLKAGADVNAQDIFGKTPADIAADAGHEDIAEVLQKAAGSPTPTPTTPTPTPTTPTPTPTGSDLGKKLLEAARAGQDDEVRELLKAGADVNAKDKDGYTPLHLAAREGHLEIVEVLLKAGADVNAKDKDGYTPLHLAAREGHLEIVEVLLKAGADVNAQDKSGKTPADLAADAGHEDIAEVLQKAAGSGSC
modifications: DOTAM conjugate, Pb-212 label; Ankyrin repeat protein (control)
As to B7, in data set [4] (Buffer only vs. (4 × 10μCi, 1 wk)), the “Mean Diff.” value was −64.44.

B8: Non-binding DARPin control comprising SEQ ID NO: 21 (designed binder)
chain: DLGKKLLEAARAGQDDEVRELLKAGADVNAKDKDGYTPLHLAAREGHLEIVEVLLKAGADVNAKDKDGYTPLHLAAREGHLEIVEVLLKAGADVNAQDKSGKTPADLAADAGHEDIAEVLQKAA
notes: Negative control on HEK293T-hDLL3 cells
Consider B8, for which the binding result in data set [1] was “no binding (tested: 500 nM)”.
